We go through one molecule from publication PMC4793259 (Journal of Extracellular Vesicles, 2016).

This test concerns the target epidermal growth factor receptor (Homo sapiens (A431, HeLa cells), UniProt P00533). The experiment in a line: flow cytometry on cells.

B1: GPI-anchored HA-tagged R2 nanobody (DAF-R2) displayed on Neuro2A extracellular vesicles (VHH)
VHH: QVQLQESGGGLVQAGGSLRLSCAASGRAASGHGHYGMGWFRQVPGKEREFVAAIRWSGKETWYKDSVKGRFTISRDNAKTTVYLQMNSLKGEDTAVYYCAARPVRVADISLPVGFDYWGQGTQVTVSS
For B1, the binding result is recorded as “no binding (tested: 5 µg/mL)”.
